Measurements as given in the nanobody polyreactivity screen of Harvey et al. (2022).

experiment: yeast display, Sf9 membrane polyspecificity reagent, FACS + sequencing; frameworks hold sequencing errors
Outline: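 Polyreactivity labels are assigned by the sorting gate from which each nanobody was recovered. The gates were low and high (top ~1%), set on anti-HA fluorescence for expression and streptavidin fluorescence for reagent binding. Before sorting, galactose-induced (36–48 hours) yeast display cells were stained for 1 hour at 4 °C with 10% biotinylated, detergent-solubilized Sf9 membrane reagent.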

Sequence	polyreactivity (PSR sort gate)
QVQLVESGGGLVQAGGSLRLSCAASGSIFVTYAMGWYRPAPGKERELVAAISTSGGSTYADSVKGRFTISRDNAKNTVYLQMNSLKPVDTAVYYCNADDPGYAVPWYWFKYDYWGQGTQVTVSS	low polyreactivity
QVQLVESGGGLVQAGGSLRLSCAASGSIFVTYAMGWYRQAPGKERELVAAISTSGGSTYADSVKGRFTISRDNAKNTVYLQMNSLKPEDTAVYYCNADDPGYAVPWYWFKYDYWGQGTQVTVSS	low polyreactivity
QVQLVESGGGLVQAGGSLRLSCAASGSIFVVNAMGWYRQAPGKERELVAAIDWSDGGTYYADSVKGRFTISRDNAKNTVYLQMNSLKPEDTAVYYCATVRYVQITRDDYWGQGTQVTVSS	low polyreactivity
QVQLVESGGGLVQAGGSLRLSCAASGSIFVVYAMGWYRPAHGKERELVAAIDSGGSTYYADSVKGRFTISRDNAKNTVYLQMNSMKTEDTAVYYCAADIYYYLWGLYYWGQGTQVTVSS	low polyreactivity
QVQLVESGGGLVQAGGSLRLSCAASGSIFVVYAMGWYRQAPGKERELVASIRTGGSTNYADSVKGRFTISRDNAKNTVYLQMNSLKPEDTAVYYCAAASWNSKRHYYVARYYYWGQGTQVTVSS	high polyreactivity
QVQLVESGGGLVQAGGSLRLSCAASGSIFVVYAMGWYRQPPGKERELVAAIDSGGSTYYADSVKGRFTISRDNAKNTVYLQLNSLKPEDTAVSYCADDGSTWGDYRTYGYWGQGTQVTVSS	low polyreactivity
QVQLVESGGGLVQAGGSLRLSCAASGSIFVVYTMGWYRQAPGKERELVAAITQNGGSSTYYADSVKGRFTISRDNAKNTVYLQMNSLKPEDTAVYYCNKDILSPVVRIFKYGYDMDYWGQGTQVTVSS	low polyreactivity
QVQLVESGGGLVQAGGSLRLSCAASGSIFVWYAMGRYRQAPGQERELVARITSGGRTNYADSVKGRFTISRDNAKNTVYLQMISLKPEDTAVYYCAAGRVSWSPDYYWGQGTQGTVSS	high polyreactivity
QVQLVESGGGLVQAGGSLRLSCAASGSIFVYNAMGWYRQAPGKEMELVAAISTSGGRTYYADSVKGRFTISRDNAKNTVYLQMNSLKTEDTAVYYCNALGYWRRVVDGFDYWGQGTQVTVSS	high polyreactivity
QVQLVESGGGLVQAGGSLRLSCAASGSIFVYNAMGWYRQAPGKERELVAAISSSGGSTYYADSVKGRFTISRDNAKNTVYLQMNSLKPEDTAVYYCAAEAVRKVPSYYSYAYYYWGQGTQVTVSS	high polyreactivity
QVQLVESGGGLVQAGGSLRLSCAASGSIFVYNAMGWYRQAPGKERELVAAITNGGSTNYADSVKGRFTISRDNAKNTVYLQMNSLNPEDTAVYYCAARRYTSAVWWRPRHYYWGQGTQVTVSS	high polyreactivity
QVQLVESGGGLVQAGGSLRLSCAASGSIFVYNAMGWYRQAPGKERELVAGITFIGGSTYYADSVKGRFTISRDNPKNTVYLQMNSLKPEDTAVYYCNADVAPGIFYGYDSWGQGTQVTVSS	low polyreactivity
QVQLVESGGGLVQAGGSLRLSCAASGSIFVYNAMGWYRQAPGKEWELVAAISFSGGDTYYADSVKGRFTISRDNAKNTVYLQMNSLKPEDTAVYYCNVDNSEYEGDYWGQGTQVTVSS	low polyreactivity
QVQLVESGGGLVQAGGSLRLSCAASGSIFVYNTMAWYRPAPVKERELVAAISSSGGSTYYADSVKGRFTISRDNAKNTVYLQMNSLKPEDTAVYYCAKGPLYSLFFQLDAPYRYGYWGQGTQVTVSS	low polyreactivity
QVQLVESGGGLVQAGGSLRLSCAASGSIFVYYAMGWYRQAPGKERELVAAISQRGGRTYYADSVKGRFTISRDNAKNTVYLQMNSLKPEDTAVYYCAARAWTRSVPYGFYYWGQGTQVTVSS	high polyreactivity
QVQLVESGGGLVQAGGSLRLSCAASGSIFVYYAMGWYRQAPGKERELVAAISSRGGRTYYADSVKGRFTISRDNAKNTVYLQMNSLKPEDTAVYYCAAVSSRLWLYDYWGQGTQVTVSS	high polyreactivity
QVQLVESGGGLVQAGGSLRLSCAASGSIFVYYAMGWYRQAPGKERELVAAISSTGGRTYYADSVKGRFTISRDNAKNTVYLQMNSLNPEDTAVYYCAKDYGSYFIFLSYPRSRYDYWGQGTQVTVSS	low polyreactivity
QVQLVESGGGLVQAGGSLRLSCAASGSIFVYYAMGWYRQAPGKERELVAAITWSSGRTYYADSVKGRFTISRDNAKNTVYLQMNSLKPEDTAVYYWNVLTRYYLGYDYWGQGTQVTVSS	high polyreactivity
QVQLVESGGGLVQAGGSLRLSCAASGSIFVYYGMGWYRQAPGKERELFAAISSGGSTHYADSVKGRFTISRDNAKNTVYLQMNSLKPEDTAVYYCAADRFFWLRSYPRYYYWGQGTQVTVSS	low polyreactivity
QVQLVESGGGLVQAGGSLRLSCAASGSIFVYYTMGWYRQAPGKERELVASITSGGNTNYADSVKGRFTISRDNAKNTVYLQMNSLKPEDTAVYYCAADYQTVTQADWGTVYDYDYWGQGTQVTVSS	low polyreactivity
QVQLVESGGGLVQAGGSLRLSCAASGSIFWANAKGWYRQAPGKERELVATITSGGRTYYADSVKGRFTISRDNAKNTVYLQMNSLKPEDTAVYYCARVPPQYRWGRRLVYVHVDYWGQGTQVTVSS	low polyreactivity
QVQLVESGGGLVQAGGSLRLSCAASGSIFWANAMGWYRQAPGKERELVASISSGGSTNYADSVKGRFTISRDNAKNTVYLQMNSLKPEDTAVYYCAADYSHSYIGYDYWGQGTQVTVSS	low polyreactivity

Sequence	polyreactivity (PSR sort gate)
QVQLVESGGGLVQAGGSLRLSCAASGSIFWEYAMGWYRQAPGKDREFVATISARGGRTYYADSVKGRFTSSRDNAKNTVYLQMNSLKPDATAVYYCANVGVFHLRDNYRFDYWGQGTQVTVSS	low polyreactivity
QVQLVESGGGLVQAGGSLRLSCAASGSIFWFKAMGWYRQAPGKERELVATIRYSGGSTYYADSVKGRFTISRDNEKNTVYLQRNSMKPEDTAVYYCAADAVGDGHNDYWGLGTQVTVSS	high polyreactivity
QVQLVESGGGLVQAGGSLRLSCAASGSIFWIYAMVWSRQAPGKERELVAVISDRGARTYYADSVKGRFTLSRDNAKNTVYLQMNSLKPEDTAVYYCNADTRQARLQKMDSWGQGTQVTVSS	high polyreactivity
QVQLVESGGGLVQAGGSLRLSCAASGSIFWNYTMGWYRPAPGKERELVAAITWSGSSTYYADSVKGRFTISRDNAKNTVYLQMNSLKPEDTAVYYCAKDGSGTYEFDYWGQGTQVTVSS	low polyreactivity
QVQLVESGGGLVQAGGSLRLSCAASGSIFWRNAMGWYRQAPGKERELVAAITKTGASTYYADSVKGRFTISRDNAKNTVYLQMNSLKPEDTAVYYCAKDTRGRYAGSYRYDYCGQGTQVTVSS	low polyreactivity
QVQLVESGGGLVQAGGSLRLSCAASGSIFWRNAMGWYRQAPGKERELVAAITSGGSTYYADSVKGRFTISRDNAKNTVYLQMNSLNPEDTAVYYCAAGYSYRYGYWGQGTQVTVSS	low polyreactivity
QVQLVESGGGLVQAGGSLRLSCAASGSIFWSNAMGWYRQSPGKEREFVASISSSGSTNYADSVKGRFTISRDNAKNTVYLQMNSLKPEDTAVYYCNADGLYSYWYFWSSAYDYWGQGTQVTVSS	low polyreactivity
QVQLVESGGGLVQAGGSLRLSCAASGSIFWSYAMGWYRQAPGKEREFVAAITVSGGSTYYADSVKGRFTISRDNAKNTVYLQMNSLKPEDTAVFYCAARQLTAGGTDLDYWGQGTKVTVSS	low polyreactivity
QVQLVESGGGLVQAGGSLRLSCAASGSIFWSYAMGWYRQAPGKERELVAAITWSGGNTYADSVKGRFTISRDNAKNTVYLQMNSLTPEDTAVYYCAAYPAHGTKWYVYPSHDDYWGQGTQVNVSS	low polyreactivity
QVQLVESGGGLVQAGGSLRLSCAASGSIFWSYAMGWYRQAPGKERELVAAITYSGTSTYYADSVKGRFTISRDNAKNTVYLQMNSLKPEDTAVSYCAASPYSRSRYDYWGQGTQVTVSS	low polyreactivity
QVQLVESGGGLVQAGGSLRLSCAASGSIFWSYAMGWYRQAPGKERELVAVINWSGGSTYYADSVKGRFTISRDNAKNTVYLQMTSLKPEDTAVYYCNKDLGPTKRPFTFDYWGQGTQVTVSS	low polyreactivity
QVQLVESGGGLVQAGGSLRLSCAASGSIFWTNVMGWYRQAPGKERELVAAISYSDGSTYYADSVKGRFTISRDNAKNTVYLQMNSLKPEDTAVYYCAADQYYYWGGYDYWGQGTQVTVSS	low polyreactivity
QVQLVESGGGLVQAGGSLRLSCAASGSIFWYNAKGWYRQAPGKERELVAAINWGGGSTYYADSVKGRFTISRDNAKNTVYLEMNSLTPEDTAVYYCNADQQVDHATVSQRDGYDYWGQGTQVTVSS	low polyreactivity
QVQLVESGGGLVQAGGSLRLSCAASGSIFWYYAMGWYRQAPGKERELVAAIRRGGSTTYADSVKGRFTISRDNAKNTVYLQMNSLKPEDTAVYYCAAEPYYWYRGDYWGQGTQVTVSS	high polyreactivity
QVQLVESGGGLVQAGGSLRLSCAASGSIFWYYAMGWYRQAPGKERELVAAISSGGSTYYADSVKGRFTISRDNAKNTVYLQMNSLKPEDTAVYYCAAGAFGQILNYWGQGTQVTVSS	high polyreactivity
QVQLVESGGGLVQAGGSLRLSCAASGSIFWYYAMGWYRQAPGKERELVADITIRGGRTYYADSVKGRFTISRDNAKNTVYLQMNSLKPEDTAVYYCAADWEYWGFGLYDYWGQGTQVTVSS	low polyreactivity
QVQLVESGGGLVQAGGSLRLSCAASGSIFWYYAMGWYRQAPGKERELVASISSSGGSTYYADSVKGRFTISRDNAKNTVYLQMNSLKPEDTAVYYCAVRSPYRLSRWRVGYWGQGTQVTVSS	high polyreactivity
QVQLVESGGGLVQAGGSLRLSCAASGSIFWYYVMGWYRQAPGKERELVAAITFSGAGTYYADSVKGRFTISRDNAKNTVYLQMNSLKPEDTAVYYCAARWLGHFYPFFLQGLSGFDYWGQGTQVTVSS	low polyreactivity
QVQLVESGGGLVQAGGSLRLSCAASGSIFYANAMGWYRQAPAKERELVAAIRSGGSTNYADSVKGRFTISRDNAKKTVYLQMNSLKPEDTAVYYCAAVWRYWSGQKVGYWGQGTQVTVSS	high polyreactivity
QVQLVESGGGLVQAGGSLRLSCAASGSIFYANAMGWYRQAPGKERELVAAISWSGGRTYYADSVKGRFTISRDNAKNTVYLQMNSLKPEDTAVYYCNVLPLYLEYDYWGQGTQVTVSS	high polyreactivity
QVQLVESGGGLVQAGGSLRLSCAASGSIFYAYAMGWYRQAPGKEREFVAVISYSGGSTYYADSVKGRFTISRDNAKNTVYLQMNSLKPEDTAVYYCAARYRRPYSYYYWGQGTQVTVSS	high polyreactivity
